Measurements reported in patent publication US20070031511A1, “Method of treatment” (priority 2003, published 2007).

Assay: Quenching of peptide tryptophan fluorescence by ferric ions (stoichiometry, apparent Kd)
Assay type: binding
Conditions: 10 mM sodium acetate pH 4.0, 100 mM NaCl, 0.005% Tween 20; mean ± S.E.; read-out: Kd (μM), apparent dissociation constant for ferric ions
Protocol: The tryptophan fluorescence of peptide solutions was measured in 3 mL quartz cuvettes thermostated at […], with a Spex Fluorolog-2 spectrofluorimeter (Spex Industries, Edison, N.J.), with the excitation and emission wavelengths set at 290 and 345 nm, respectively. The quenching of tryptophan fluorescence induced by the binding of metal ions was used to calculate the fraction of binding sites occupied, fa: fa=(yf−y)/(yf−yb) where y is the fluorescence signal at a given concentration of metal ions and yb and yf are the signals when the binding sites are fully occupied and unoccupied, respectively (Winzor et al, 1995). […]
The tryptophan fluorescence of progastrin6-80, glycine-extended gastrin17 and related peptides was measured in the presence of increasing concentrations of ferric ions in 10 mM sodium acetate, pH 4.0, 100 mM NaCl, 0.005% Tween 20. […]
The tryptophan fluorescence of amidated gastrin17 and related peptides was measured in the presence of increasing concentrations of ferric ions at pH 4.0 (8). […]

B1: Progastrin: recombinant human progastrin6-80 (protein, listed as Homo sapiens)
chain: SQQPDAPLGTGANRDLELPWLEQQGPASHHRRQLGPQGPPHLVADPSKKQGPWLEEEEEAYGWMDFGRRSAEDEN
With B1 as the molecule, how does the Kd read?
The Kd was 2.15 ± 0.14 µM.
